Test results taken from paper PMC3097263.

Target: MqsA (UniProt Q46864 1-131)
Assay: EMSA

Chain of MqsA (Q46864 whole entry): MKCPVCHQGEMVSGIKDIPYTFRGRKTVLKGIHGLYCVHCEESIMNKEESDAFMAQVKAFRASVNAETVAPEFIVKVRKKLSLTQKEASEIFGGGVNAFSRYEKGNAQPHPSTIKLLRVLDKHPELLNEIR

B1: PrpoS 25-mer (dsDNA)
DNA 1: TGGTCAGACCTTGCAGGTGGGTAAT
DNA 2: ATTACCCACCTGCAAGGTCTGACCA
binding result: binds
